Patent publication US11795460B2, “Compositions and methods for TTR gene editing and treating ATTR amyloidosis” (Intellia Therapeutics, Inc., priority 2017, dated 2023)
Strand notation (5' to 3'): a small letter for the sugar, then the base; units joined by * are phosphorothioate-linked, units joined directly phosphodiester-linked; [ ] holds rarer units or linkages, { } end groups; capitals alone tell only the bases. m = 2'-O-methyl; r = 2'-OH (RNA)

Tests used:
[1] = test system: TTR; experiment: TTR editing in HepG2 cells transfected with Spy Cas9 mRNA and dgRNAs (Table 6); assay type: cell-based, human; conditions: HepG2 cells co-transfected with Spy Cas9 mRNA (SEQ ID NO:2) and dgRNAs
Summary of the method: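 HepG2 cells were transfected sequentially by lipofection with Spy Cas9 mRNA (100 ng), then crRNA plus tracer RNA (25 nM each), and harvested at 24, 48 or 72 h. Editing was measured by amplicon NGS at the TTR target site as the fraction of reads with indels or substitutions.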

[2] = test system: off-target integration sites; experiment: Off-target oligo insertion based assay in primary human hepatocytes (Table 30); assay type: cell-based; conditions: TTR sgRNAs in PHH, 100 ng Cas9 mRNA, 25 nM sgRNA, 12.5 nM donor oligo
Experimental: Off-target analysis of sgRNAs targeting TTR was performed in primary human hepatocytes (PHH) as described in Example 5, with the following modifications. PHH were plated at a density of 33,000 cells per well on collagen-coated 96-well plates as described in Example 1. Twenty-four hours post plating, cells were washed with media and transfected using Lipofectamine RNAiMAX (ThermoFisher, Cat. 13778150) as described in Example 1. Cells were transfected with a lipoplex containing 100 ng Cas9 mRNA, immediately followed by the addition of another lipoplex containing 25 nM of the sgRNA and 12.5 nM of the donor oligo (0.3 μL/well). Cells were lysed 48 hours post-transfection and gDNA was extracted and analyzed as further described in Example 5. The data is graphically represented in FIG. 20.
Fewer sites were detected in PHH for every guide tested as compared to the HekCas9 cell line, with no unique sites detected in PHH alone.

[3] = test system: TTR; experiment: TTR editing in primary human hepatocytes transfected with Spy Cas9 mRNA and sgRNAs (Table 13); assay type: cell-based; conditions: primary human hepatocytes co-transfected with Spy Cas9 mRNA (SEQ ID NO:2) and sgRNAs, 12.5 nM
Experimental: Primary liver hepatocytes. Primary human liver hepatocytes (PHH) and primary cynomolgus liver hepatocytes (PCH) (Gibco) were cultured per the manufacturer's protocol (Invitrogen, protocol 11.28.2012). In brief, the cells were thawed and resuspended in hepatocyte thawing medium with supplements (Gibco, Cat. CM7000) followed by centrifugation at 100 g for 10 minutes for human and 80 g for 4 minutes for cyno. The supernatant was discarded and the pelleted cells resuspended in hepatocyte plating medium plus supplement pack (Invitrogen, Cat. A1217601 and CM3000). Cells were counted and plated on Bio-coat collagen I coated 96-well plates (ThermoFisher, Cat. 877272) at a density of 33,000 cells/well for human or 60,000 cells/well for cyno (or 65,000 cells/well when assaying effects on TTR protein, described further below). Plated cells were allowed to settle and adhere for 6 or 24 hours in a tissue culture incubator at 37° C. and 5% CO2 atmosphere. After incubation cells were checked for monolayer formation and media was replaced with hepatocyte culture medium with serum-free supplement pack (Invitrogen, Cat. A1217601 and CM4000).
Lipofectamine RNAiMax (ThermoFisher, Cat. 13778150) based transfections were conducted as per the manufacturer's protocol. Cells were sequentially transfected with a lipoplex containing Spy Cas9 mRNA (100 ng), Lipofectamine RNAiMax (0.4 […]) and tracer RNA ([…]), Lipofectamine RNAiMax (0.4 μL/well) and OptiMem.
Transfected cells were harvested post-transfection at 24, 48, or 72 hours. The genomic DNA was extracted from each well of a 96-well plate using 50 μL/well BuccalAmp DNA Extraction solution (Epicentre, Cat. QE09050) per manufacturer's protocol. All DNA samples were subjected to PCR and subsequent NGS analyses, as described herein.
To quantitatively determine the efficiency of editing at the target location in the genome, sequencing was utilized to identify the presence of insertions and deletions introduced by gene editing.
Primers were designed around the target site within the gene of interest (e.g. TTR), and the genomic area of interest was amplified.
Additional PCR was performed per the manufacturer's protocols (Illumina) to add chemistry for sequencing. The amplicons were sequenced on an Illumina MiSeq instrument. The reads were aligned to a reference genome (e.g., the human reference genome (hg38), the cynomologus reference genome (mf5), the rat reference genome (rn6), or the mouse reference genome (mm10)) after eliminating those having low quality scores. The resulting files containing the reads were mapped to the reference genome (BAM files), where reads that overlapped the target region of interest were selected and the number of wild type reads versus the number of reads which contain an insertion, substitution, or deletion was calculated.
The editing percentage (e.g., the “editing efficiency” or “percent editing” or “indel frequency”) is defined as the total number of sequence reads with insertions/deletions (“indels”) or substitutions over the total number of sequence reads, including wild type.
Guides in modified sgRNA format targeting human and/or cyno TTR were delivered to primary human hepatocytes and primary cyno hepatocytes as described in Example 1. Percent editing was determined for crRNAs comprising each guide sequence across each cell type and the guide sequences were then rank ordered based on highest % edit. The screening data for the guide sequences in Table 2 in both cell lines are listed below (Table 12 through 15).

| Molecule | Avg % Deletion [1] | Avg % Edit [1] | Avg % Insert [1] | # Sites in PHH [2] | Avg % Deletion [3] | Avg % Edit [3] | Avg % Insert [3] |
| --- | --- | --- | --- | --- | --- | --- | --- |
| CCAGUCCAGCAAGGCAGAGG (tested as dual guide RNA, chemistry not given here) [CR003337] | 2.65% | 61.93% | 59.28% | – | – | – | – |
| GUGAGUCUGGAGAGCUGCAU (tested as dual guide RNA, chemistry not given here) [CR003360] | 2.38% | 41.31% | 38.94% | – | – | – | – |
| GCUGCAUGGGCUCACAACUG (tested as dual guide RNA, chemistry not given here) [CR003361] | 2.58% | 14.05% | 11.47% | – | – | – | – |
| AUGCAGCUCUCCAGACUCAC (tested as dual guide RNA, chemistry not given here) [CR003358] | 7.27% | 35.93% | 28.66% | – | – | – | – |
| CAGAGGACACUUGGAUUCAC (tested as dual guide RNA, chemistry not given here) [CR003343] | 5.36% | 45.41% | 40.05% | – | – | – | – |
| AGUGAGUCUGGAGAGCUGCA (tested as dual guide RNA, chemistry not given here) [CR003359] | 15.65% | 64.44% | 48.79% | – | – | – | – |
| CAUUGAUGGCAGGACUGCCU (tested as dual guide RNA, chemistry not given here) [CR003347] | 1.49% | 22.57% | 21.08% | – | – | – | – |
| G000499: TTR sgRNA modified sequence, Human, SEQ ID No. 106; guide sequence of CR005303 (nucleic acid) guide: mU*mG*mA*rArUrCrCrArArGrUrGrUrCrCrUrCrUrGrArGrUrUrUrUrArGrAmGmCmUmAmGmAmAmAmUmAmGmCrArArGrUrUrArArArArUrArArGrGrCrUrArGrUrCrCrGrUrUrArUrCrAmAmCmUmUmGmAmAmAmAmAmGmUmGmGmCmAmCmCmGmAmGmUmCmGmGmUmGmCmU*mU*mU*mU | – | – | – | 1 | 0.77% | 39.30% | 38.58% |
| G000483: TTR sgRNA modified sequence, Human, SEQ ID No. 90; guide sequence of CR005298 (nucleic acid) guide: mU*mC*mC*rArCrUrCrArUrUrCrUrUrGrGrCrArGrGrArGrUrUrUrUrArGrAmGmCmUmAmGmAmAmAmUmAmGmCrArArGrUrUrArArArArUrArArGrGrCrUrArGrUrCrCrGrUrUrArUrCrAmAmCmUmUmGmAmAmAmAmAmGmUmGmGmCmAmCmCmGmAmGmUmCmGmGmUmGmCmU*mU*mU*mU | – | – | – | 0 | 23.85% | 27.82% | 4.05% |
| G000482: TTR sgRNA modified sequence, Human, SEQ ID No. 89; guide sequence of CR003365 (nucleic acid) guide: mU*mG*mU*rArGrArArGrGrGrArUrArUrArCrArArArGrGrUrUrUrUrArGrAmGmCmUmAmGmAmAmAmUmAmGmCrArArGrUrUrArArArArUrArArGrGrCrUrArGrUrCrCrGrUrUrArUrCrAmAmCmUmUmGmAmAmAmAmAmGmUmGmGmCmAmCmCmGmAmGmUmCmGmGmUmGmCmU*mU*mU*mU | – | – | – | 2 | 13.25% | 40.93% | 27.70% |
| G000480: TTR sgRNA modified sequence, Human, SEQ ID No. 87; guide sequence of CR003353 (nucleic acid) guide: mA*mA*mA*rGrGrCrUrGrCrUrGrArUrGrArCrArCrCrUrGrUrUrUrUrArGrAmGmCmUmAmGmAmAmAmUmAmGmCrArArGrUrUrArArArArUrArArGrGrCrUrArGrUrCrCrGrUrUrArUrCrAmAmCmUmUmGmAmAmAmAmAmGmUmGmGmCmAmCmCmGmAmGmUmCmGmGmUmGmCmU*mU*mU*mU | – | – | – | 2 | 13.47% | 73.28% | 59.85% |
| G000488: TTR sgRNA modified sequence, Human, SEQ ID No. 95; guide sequence of CR003346 (nucleic acid) guide: mA*mA*mA*rGrUrUrCrUrArGrArUrGrCrUrGrUrCrCrGrGrUrUrUrUrArGrAmGmCmUmAmGmAmAmAmUmAmGmCrArArGrUrUrArArArArUrArArGrGrCrUrArGrUrCrCrGrUrUrArUrCrAmAmCmUmUmGmAmAmAmAmAmGmUmGmGmCmAmCmCmGmAmGmUmCmGmGmUmGmCmU*mU*mU*mU | – | – | – | 0 | 37.48% | 49.40% | 11.98% |
| G000484: TTR sgRNA modified sequence, Human, SEQ ID No. 91; guide sequence of CR003367 (nucleic acid) guide: mA*mG*mA*rCrArCrCrArArArUrCrUrUrArCrUrGrGrArGrUrUrUrUrArGrAmGmCmUmAmGmAmAmAmUmAmGmCrArArGrUrUrArArArArUrArArGrGrCrUrArGrUrCrCrGrUrUrArUrCrAmAmCmUmUmGmAmAmAmAmAmGmUmGmGmCmAmCmCmGmAmGmUmCmGmGmUmGmCmU*mU*mU*mU | – | – | – | 0 | 29.48% | 43.37% | 13.98% |
| G000489: TTR sgRNA modified sequence, Human, SEQ ID No. 96; guide sequence of CR003344 (nucleic acid) guide: mU*mU*mU*rGrArCrCrArUrCrArGrArGrGrArCrArCrUrGrUrUrUrUrArGrAmGmCmUmAmGmAmAmAmUmAmGmCrArArGrUrUrArArArArUrArArGrGrCrUrArGrUrCrCrGrUrUrArUrCrAmAmCmUmUmGmAmAmAmAmAmGmUmGmGmCmAmCmCmGmAmGmUmCmGmGmUmGmCmU*mU*mU*mU | – | – | – | 2 | 10.28% | 24.25% | 14.17% |
| G000494: TTR sgRNA modified sequence, Human, SEQ ID No. 101; guide sequence of CR003360 (nucleic acid) guide: mG*mU*mG*rArGrUrCrUrGrGrArGrArGrCrUrGrCrArUrGrUrUrUrUrArGrAmGmCmUmAmGmAmAmAmUmAmGmCrArArGrUrUrArArArArUrArArGrGrCrUrArGrUrCrCrGrUrUrArUrCrAmAmCmUmUmGmAmAmAmAmAmGmUmGmGmCmAmCmCmGmAmGmUmCmGmGmUmGmCmU*mU*mU*mU | – | – | – | 0 | 1.07% | 26.22% | 25.17% |
| G000486: TTR sgRNA modified sequence, Human, SEQ ID No. 93; guide sequence of CR003339 (nucleic acid) guide: mA*mC*mA*rCrArArArUrArCrCrArGrUrCrCrArGrCrArGrUrUrUrUrArGrAmGmCmUmAmGmAmAmAmUmAmGmCrArArGrUrUrArArArArUrArArGrGrCrUrArGrUrCrCrGrUrUrArUrCrAmAmCmUmUmGmAmAmAmAmAmGmUmGmGmCmAmCmCmGmAmGmUmCmGmGmUmGmCmU*mU*mU*mU | – | – | – | 0 | 56.37% | 59.13% | 2.82% |
| G000481: TTR sgRNA modified sequence, Human, SEQ ID No. 88; guide sequence of CR003345 (nucleic acid) guide: mU*mC*mU*rArGrArArCrUrUrUrGrArCrCrArUrCrArGrGrUrUrUrUrArGrAmGmCmUmAmGmAmAmAmUmAmGmCrArArGrUrUrArArArArUrArArGrGrCrUrArGrUrCrCrGrUrUrArUrCrAmAmCmUmUmGmAmAmAmAmAmGmUmGmGmCmAmCmCmGmAmGmUmCmGmGmUmGmCmU*mU*mU*mU | – | – | – | 0 | 19.77% | 34.30% | 14.62% |
